{
  "source": "patent US9383366B2",
  "about": "“Blue fluorescent protein and methods of use thereof” (WiSys Technology Foundation, Inc., priority 2013, dated 2016)",
  "molecules": {"B1": {"name": "Sandercyanin protein: native blue fluorescent bili-binding lipocalin protein from walleye mucus, SEQ ID NO: 1 (protein)", "chain": "QFIKPGRCPKPAVQEDFDAARYLGVWYDIQRLPNKFQKGECATATYSLSPGVGFSVFNRERLANGTIKSVIGSAIAEDPCEPAKLQFFHENAAPVPYWVLSTDYDNYALVYSCINLGASHAAYASIVSRQPTLPEETIKKLQGTMSSFGVGVDTLLTTNQDAAYCSAMNQ", "modifications": "Sandercyanin"}},
  "key": {"[1]": {"conditions": "on excitation at 380 nm and 630 nm; cited from earlier work"}, "[2]": {"system": "hydra", "assay": "Injection of Sandercyanin protein into hydra, fluorescence localization", "type": "in vivo", "conditions": "injected into hydra", "text": "We are currently imploring the localization of Sandercyanin in model organisms."}, "[3]": {"assay": "Spectral properties (absorption and fluorescence emission) of Sandercyanin protein", "type": "physicochemical"}, "[4]": {"conditions": "band maximum used for Stokes shift"}},
  "data": [
    {"molecule": "B1", "values": [
      {"measurement": "emission maxima", "setting": "[1]", "result": 678, "unit": "nm"},
      {"measurement": "fluorescence after injection", "setting": "[2]", "result": "showed fluorescence on the surface of tentacles"},
      {"measurement": "absorption", "setting": "[3]; [4]", "result": 375, "unit": "nm"},
      {"measurement": "emission", "setting": "[3]; [4]", "result": 675, "unit": "nm"},
      {"measurement": "Stokes shift", "setting": "[3]; difference between absorption and emission band maxima", "result": "~300", "unit": "nm"}
    ]}
  ]
}
